The results in this text go back to US20260176319A1 (KALLYOPE, published 2026).

The experiment has as its target human GRP receptor (human, UniProt P30550 1-384). In words: cell-based or functional assay.

Starred links: 1 amine or outer side, 2 acyl side, 3 side chain; linkers in the order of their positions; H or OH if unused. Non-standard residues stand in square brackets, D forms with d. Groups on a side chain read outwards from the residue. *: point of attachment. Trp(7-F) = N[C@@H](Cc1c[nH]c2c(F)cccc12)C(=O)O; Trp(7-Me) = Cc1cccc2c(C[C@H](N)C(=O)O)c[nH]c12; d(γGlu) = O=C(O)[C@@H](CCC(=O)[*:2])N[*:1]; C18 diacid = O=C(O)CCCCCCCCCCCCCCCCC(=O)*; Palmitoyl = CCCCCCCCCCCCCCCC(=O)*; 2Pal = N[C@@H](Cc1ccccn1)C(=O)O; 3Pal = N[C@@H](Cc1cccnc1)C(=O)O; 4Pal = N[C@@H](Cc1ccncc1)C(=O)O; Nle = CCCC[C@H](N)C(=O)O; AEEA = NCCOCCOCC(=O)O; Aib = CC(C)(N)C(=O)O; Sar = CNCC(=O)O

Sequence of human GRP receptor (P30550 whole entry): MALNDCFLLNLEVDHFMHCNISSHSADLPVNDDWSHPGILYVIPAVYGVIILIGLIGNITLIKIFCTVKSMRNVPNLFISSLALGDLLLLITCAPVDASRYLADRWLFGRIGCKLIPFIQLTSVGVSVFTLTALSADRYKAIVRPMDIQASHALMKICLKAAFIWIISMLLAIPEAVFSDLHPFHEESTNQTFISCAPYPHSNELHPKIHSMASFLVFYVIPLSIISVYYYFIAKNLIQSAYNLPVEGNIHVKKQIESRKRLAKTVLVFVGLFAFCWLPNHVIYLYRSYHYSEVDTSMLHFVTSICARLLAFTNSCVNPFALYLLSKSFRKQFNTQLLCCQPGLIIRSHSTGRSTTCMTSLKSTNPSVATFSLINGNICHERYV

B1: Peptide 2 (peptide)
peptide: Palmitoyl-[d(γGlu)][AEEA][AEEA]GNHWAV[Aib][3Pal]L[Nle]-NH2
SMILES: CCCCCCCCCCCCCCCC(=O)N[C@H](CCC(=O)NCCOCCOCC(=O)NCCOCCOCC(=O)NCC(=O)N[C@@H](CC(N)=O)C(=O)N[C@@H](Cc1c[nH]cn1)C(=O)N[C@@H](Cc1c[nH]c2ccccc12)C(=O)N[C@@H](C)C(=O)N[C@H](C(=O)NC(C)(C)C(=O)N[C@@H](Cc1cccnc1)C(=O)N[C@@H](CC(C)C)C(=O)N[C@@H](CCCC)C(N)=O)C(C)C)C(=O)O
With B1, the “hIP1 GRPR EC50” value was 822 nM.

B2: Peptide 3 (peptide)
peptide: Palmitoyl-[d(γGlu)][AEEA][AEEA]GN[3Pal]WAV[Aib]HL[Nle]-NH2
SMILES: CCCCCCCCCCCCCCCC(=O)N[C@H](CCC(=O)NCCOCCOCC(=O)NCCOCCOCC(=O)NCC(=O)N[C@@H](CC(N)=O)C(=O)N[C@@H](Cc1cccnc1)C(=O)N[C@@H](Cc1c[nH]c2ccccc12)C(=O)N[C@@H](C)C(=O)N[C@H](C(=O)NC(C)(C)C(=O)N[C@@H](Cc1c[nH]cn1)C(=O)N[C@@H](CC(C)C)C(=O)N[C@@H](CCCC)C(N)=O)C(C)C)C(=O)O
With B2, the “hIP1 GRPR EC50” value stood at 8.7 nM.

B3: Peptide 23 (peptide)
peptide: Palmitoyl-[d(γGlu)][AEEA][AEEA]GNH[Trp(7-Me)]AV[Aib][3Pal]L[Nle][Sar]-NH2
SMILES: CCCCCCCCCCCCCCCC(=O)N[C@H](CCC(=O)NCCOCCOCC(=O)NCCOCCOCC(=O)NCC(=O)N[C@@H](CC(N)=O)C(=O)N[C@@H](Cc1c[nH]cn1)C(=O)N[C@@H](Cc1c[nH]c2c(C)cccc12)C(=O)N[C@@H](C)C(=O)N[C@H](C(=O)NC(C)(C)C(=O)N[C@@H](Cc1cccnc1)C(=O)N[C@@H](CC(C)C)C(=O)N[C@@H](CCCC)C(=O)N(C)CC(N)=O)C(C)C)C(=O)O
On to B3, for which the “hIP1 GRPR EC50” value was 1090 nM.

B4: Peptide 53 (peptide)
peptide: {C18 diacid}-[d(γGlu)][AEEA][AEEA][AEEA][AEEA]GNHWAV[dA]HL[Nle]-NH2
SMILES: CCCC[C@H](NC(=O)[C@H](CC(C)C)NC(=O)[C@H](Cc1c[nH]cn1)NC(=O)[C@@H](C)NC(=O)[C@@H](NC(=O)[C@H](C)NC(=O)[C@H](Cc1c[nH]c2ccccc12)NC(=O)[C@H](Cc1c[nH]cn1)NC(=O)[C@H](CC(N)=O)NC(=O)CNC(=O)COCCOCCNC(=O)COCCOCCNC(=O)COCCOCCNC(=O)COCCOCCNC(=O)CC[C@@H](NC(=O)CCCCCCCCCCCCCCCCC(=O)O)C(=O)O)C(C)C)C(N)=O
In the case of B4, the “hIP1 GRPR EC50” value worked out at 42 nM.
In the case of EXXGNHWAVXHLK (Palmitoyl-D-γGlu-OEG-OEG-Gly-Asn-His-Trp-Ala-Val-D-Ala-His-Leu-Lys(Me)3-NH2) [Peptide 49] it was 4040 nM.

B5: Peptide 57 (peptide)
peptide: Palmitoyl-[d(γGlu)][AEEA][AEEA]GK([AEEA-AEEA-d(γGlu)-Palmitoyl])HWAV[dA]HL[Nle]-NH2
SMILES: CCCCCCCCCCCCCCCC(=O)N[C@H](CCC(=O)NCCOCCOCC(=O)NCCOCCOCC(=O)NCCCC[C@H](NC(=O)CNC(=O)COCCOCCNC(=O)COCCOCCNC(=O)CC[C@@H](NC(=O)CCCCCCCCCCCCCCC)C(=O)O)C(=O)N[C@@H](Cc1c[nH]cn1)C(=O)N[C@@H](Cc1c[nH]c2ccccc12)C(=O)N[C@@H](C)C(=O)N[C@H](C(=O)N[C@H](C)C(=O)N[C@@H](Cc1c[nH]cn1)C(=O)N[C@@H](CC(C)C)C(=O)N[C@@H](CCCC)C(N)=O)C(C)C)C(=O)O
Turning to B5, the “hIP1 GRPR EC50” value turned out to be 72.8 nM.

B6: Peptide 52 (peptide)
peptide: Palmitoyl-[d(γGlu)][AEEA][AEEA]GN[4Pal]WAV[dA]HL[Nle]-NH2
SMILES: CCCCCCCCCCCCCCCC(=O)N[C@H](CCC(=O)NCCOCCOCC(=O)NCCOCCOCC(=O)NCC(=O)N[C@@H](CC(N)=O)C(=O)N[C@@H](Cc1ccncc1)C(=O)N[C@@H](Cc1c[nH]c2ccccc12)C(=O)N[C@@H](C)C(=O)N[C@H](C(=O)N[C@H](C)C(=O)N[C@@H](Cc1c[nH]cn1)C(=O)N[C@@H](CC(C)C)C(=O)N[C@@H](CCCC)C(N)=O)C(C)C)C(=O)O
As to B6, the “hIP1 GRPR EC50” value stood at 1.75 nM.

B7: Peptide 56 (peptide)
peptide: Palmitoyl-[d(γGlu)][AEEA][AEEA]GNH[Trp(7-F)]AV[dA]HL[Nle]-NH2
SMILES: CCCCCCCCCCCCCCCC(=O)N[C@H](CCC(=O)NCCOCCOCC(=O)NCCOCCOCC(=O)NCC(=O)N[C@@H](CC(N)=O)C(=O)N[C@@H](Cc1c[nH]cn1)C(=O)N[C@@H](Cc1c[nH]c2c(F)cccc12)C(=O)N[C@@H](C)C(=O)N[C@H](C(=O)N[C@H](C)C(=O)N[C@@H](Cc1c[nH]cn1)C(=O)N[C@@H](CC(C)C)C(=O)N[C@@H](CCCC)C(N)=O)C(C)C)C(=O)O
As for B7, the “hIP1 GRPR EC50” value was 1.97 nM.

B8: Peptide 54 (peptide)
peptide: Palmitoyl-[d(γGlu)][AEEA][AEEA][AEEA][AEEA]GNHWAV[dA]HL[Nle]-NH2
SMILES: CCCCCCCCCCCCCCCC(=O)N[C@H](CCC(=O)NCCOCCOCC(=O)NCCOCCOCC(=O)NCCOCCOCC(=O)NCCOCCOCC(=O)NCC(=O)N[C@@H](CC(N)=O)C(=O)N[C@@H](Cc1c[nH]cn1)C(=O)N[C@@H](Cc1c[nH]c2ccccc12)C(=O)N[C@@H](C)C(=O)N[C@H](C(=O)N[C@H](C)C(=O)N[C@@H](Cc1c[nH]cn1)C(=O)N[C@@H](CC(C)C)C(=O)N[C@@H](CCCC)C(N)=O)C(C)C)C(=O)O
Take B8: the “hIP1 GRPR EC50” value turned out to be 3.12 nM.

B9: Peptide 26 (peptide)
peptide: Palmitoyl-[d(γGlu)]GNHWAV[dA]HL[Nle]-NH2
SMILES: CCCCCCCCCCCCCCCC(=O)N[C@H](CCC(=O)NCC(=O)N[C@@H](CC(N)=O)C(=O)N[C@@H](Cc1c[nH]cn1)C(=O)N[C@@H](Cc1c[nH]c2ccccc12)C(=O)N[C@@H](C)C(=O)N[C@H](C(=O)N[C@H](C)C(=O)N[C@@H](Cc1c[nH]cn1)C(=O)N[C@@H](CC(C)C)C(=O)N[C@@H](CCCC)C(N)=O)C(C)C)C(=O)O
With B9, the “hIP1 GRPR EC50” value was 1.8 nM.

B10: Peptide 24 (peptide)
peptide: Palmitoyl-[d(γGlu)][AEEA][AEEA]GEHWAV[Aib]HL[Nle]-NH2
SMILES: CCCCCCCCCCCCCCCC(=O)N[C@H](CCC(=O)NCCOCCOCC(=O)NCCOCCOCC(=O)NCC(=O)N[C@@H](CCC(=O)O)C(=O)N[C@@H](Cc1c[nH]cn1)C(=O)N[C@@H](Cc1c[nH]c2ccccc12)C(=O)N[C@@H](C)C(=O)N[C@H](C(=O)NC(C)(C)C(=O)N[C@@H](Cc1c[nH]cn1)C(=O)N[C@@H](CC(C)C)C(=O)N[C@@H](CCCC)C(N)=O)C(C)C)C(=O)O
Turning to B10, the “hIP1 GRPR EC50” value worked out at 183 nM.

B11: Peptide 46 (peptide)
peptide: {C18 diacid}-[dE][AEEA][AEEA]GNH[Trp(7-Me)]AV[dA]HL[Nle]-NH2
SMILES: CCCC[C@H](NC(=O)[C@H](CC(C)C)NC(=O)[C@H](Cc1c[nH]cn1)NC(=O)[C@@H](C)NC(=O)[C@@H](NC(=O)[C@H](C)NC(=O)[C@H](Cc1c[nH]c2c(C)cccc12)NC(=O)[C@H](Cc1c[nH]cn1)NC(=O)[C@H](CC(N)=O)NC(=O)CNC(=O)COCCOCCNC(=O)COCCOCCNC(=O)[C@@H](CCC(=O)O)NC(=O)CCCCCCCCCCCCCCCCC(=O)O)C(C)C)C(N)=O
On to B11, for which the “hIP1 GRPR EC50” value turned out to be 9.9 nM.

B12: Peptide 58 (peptide)
peptide: Palmitoyl-[d(γGlu)][AEEA][AEEA][AEEA][AEEA]GN[3Pal][Trp(7-Me)]AV[dA]HL[Nle]-NH2
SMILES: CCCCCCCCCCCCCCCC(=O)N[C@H](CCC(=O)NCCOCCOCC(=O)NCCOCCOCC(=O)NCCOCCOCC(=O)NCCOCCOCC(=O)NCC(=O)N[C@@H](CC(N)=O)C(=O)N[C@@H](Cc1cccnc1)C(=O)N[C@@H](Cc1c[nH]c2c(C)cccc12)C(=O)N[C@@H](C)C(=O)N[C@H](C(=O)N[C@H](C)C(=O)N[C@@H](Cc1c[nH]cn1)C(=O)N[C@@H](CC(C)C)C(=O)N[C@@H](CCCC)C(N)=O)C(C)C)C(=O)O
On to B12, for which the “hIP1 GRPR EC50” value is 4.22 nM.

B13: Peptide 51 (peptide)
peptide: Palmitoyl-[d(γGlu)][AEEA][AEEA]GN[2Pal]WAV[dA]HL[Nle]-NH2
SMILES: CCCCCCCCCCCCCCCC(=O)N[C@H](CCC(=O)NCCOCCOCC(=O)NCCOCCOCC(=O)NCC(=O)N[C@@H](CC(N)=O)C(=O)N[C@@H](Cc1ccccn1)C(=O)N[C@@H](Cc1c[nH]c2ccccc12)C(=O)N[C@@H](C)C(=O)N[C@H](C(=O)N[C@H](C)C(=O)N[C@@H](Cc1c[nH]cn1)C(=O)N[C@@H](CC(C)C)C(=O)N[C@@H](CCCC)C(N)=O)C(C)C)C(=O)O
With B13, the “hIP1 GRPR EC50” value is 0.95 nM.

B14: Peptide 47 (peptide)
peptide: {C18 diacid}-[d(γGlu)][AEEA][AEEA]GNHWAV[dA]HL[Nle][Sar]-NH2
SMILES: CCCC[C@H](NC(=O)[C@H](CC(C)C)NC(=O)[C@H](Cc1c[nH]cn1)NC(=O)[C@@H](C)NC(=O)[C@@H](NC(=O)[C@H](C)NC(=O)[C@H](Cc1c[nH]c2ccccc12)NC(=O)[C@H](Cc1c[nH]cn1)NC(=O)[C@H](CC(N)=O)NC(=O)CNC(=O)COCCOCCNC(=O)COCCOCCNC(=O)CC[C@@H](NC(=O)CCCCCCCCCCCCCCCCC(=O)O)C(=O)O)C(C)C)C(=O)N(C)CC(N)=O
As for B14, the “hIP1 GRPR EC50” value stood at 216 nM.

B15: Peptide 48 (peptide)
peptide: Palmitoyl-[d(γGlu)][AEEA][AEEA]GNHWAV[dA]HL[Nle][Sar]-NH2
SMILES: CCCCCCCCCCCCCCCC(=O)N[C@H](CCC(=O)NCCOCCOCC(=O)NCCOCCOCC(=O)NCC(=O)N[C@@H](CC(N)=O)C(=O)N[C@@H](Cc1c[nH]cn1)C(=O)N[C@@H](Cc1c[nH]c2ccccc12)C(=O)N[C@@H](C)C(=O)N[C@H](C(=O)N[C@H](C)C(=O)N[C@@H](Cc1c[nH]cn1)C(=O)N[C@@H](CC(C)C)C(=O)N[C@@H](CCCC)C(=O)N(C)CC(N)=O)C(C)C)C(=O)O
Turning to B15, the “hIP1 GRPR EC50” value came out at 1.1 nM.

B16: Peptide 25 (peptide)
peptide: GNHWAVXHLX
modifications: not fully specified; Ac-Gly-Asn-His-Trp-Ala-Val-D-Ala-His-Leu-Nle-H2N(CH2)3NH2-OEG-OEG-(α-Palmitoyl-D-γGlu)
Regarding B16, the “hIP1 GRPR EC50” value turned out to be 10000 nM.
